Laboratory results: PMC10219652, “Insights into cargo sorting by SNX32 and its role in neurite outgrowth” (eLife, 2023)

Assays:
[1] = target: GFP-SNX4 (UniProt O95219); assay: co-IP; GBP-IP as above with lysates of HeLa cells transiently transfected with wild-type or mutant GFP-SNX4 and HA-SNX32 (legend of Figure 1H); values are the ratio of HA to GFP band intensity
[2] = target: T1, GFP-SNX4, O95219; assay: co-IP; GFP nanobody-based immunoprecipitation (GBP-IP): GST-GBP on glutathione sepharose beads incubated 2 hr at 4°C with extracts of HEK293T cells overexpressing GFP- and HA-tagged SNX proteins; washed with 1x PBS; immunoblot with anti-HA and anti-GFP; values are the ratio of HA to GFP band intensity; details: remark: other sources report otherwise
T1 chain: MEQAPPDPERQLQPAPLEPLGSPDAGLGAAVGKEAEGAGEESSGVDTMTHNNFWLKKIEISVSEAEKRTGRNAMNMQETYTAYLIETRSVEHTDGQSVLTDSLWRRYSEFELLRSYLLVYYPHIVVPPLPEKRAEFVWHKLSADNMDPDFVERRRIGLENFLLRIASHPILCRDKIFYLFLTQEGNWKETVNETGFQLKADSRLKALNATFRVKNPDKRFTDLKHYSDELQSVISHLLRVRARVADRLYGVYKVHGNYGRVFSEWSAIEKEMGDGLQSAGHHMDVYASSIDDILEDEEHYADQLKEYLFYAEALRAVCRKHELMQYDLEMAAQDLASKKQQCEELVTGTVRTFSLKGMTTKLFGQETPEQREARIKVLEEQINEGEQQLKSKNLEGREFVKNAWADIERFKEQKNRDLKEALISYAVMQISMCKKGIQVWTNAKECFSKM

[3] = target: T2, GFP-SNX1 (UniProt Q13596-1 1-522); assay: as above; details: partners not purified
T2 construct: Sorting nexin 1 (SNX1); pEGFP C1 SNX1, gift of P. J. Cullen; also called GFP-SNX1 WT; pEGFP C1 SNX1
T2 sequence (Q13596 whole entry): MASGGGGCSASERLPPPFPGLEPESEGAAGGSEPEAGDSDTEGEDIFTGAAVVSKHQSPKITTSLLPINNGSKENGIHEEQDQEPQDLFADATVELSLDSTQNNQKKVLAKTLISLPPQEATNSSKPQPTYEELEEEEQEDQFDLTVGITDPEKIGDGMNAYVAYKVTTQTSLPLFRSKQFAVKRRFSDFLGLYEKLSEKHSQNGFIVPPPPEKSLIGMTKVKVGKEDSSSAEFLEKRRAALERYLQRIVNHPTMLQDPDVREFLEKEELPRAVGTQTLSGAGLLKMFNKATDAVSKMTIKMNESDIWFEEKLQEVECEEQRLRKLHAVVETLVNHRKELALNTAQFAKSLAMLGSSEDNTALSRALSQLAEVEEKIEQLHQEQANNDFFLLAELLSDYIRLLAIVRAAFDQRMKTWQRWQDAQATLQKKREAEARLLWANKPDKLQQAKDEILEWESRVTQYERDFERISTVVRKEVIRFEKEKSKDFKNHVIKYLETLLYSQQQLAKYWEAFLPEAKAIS

[4] = target: T3, GFP-SNX8 (UniProt Q9Y5X2 1-465); assay: as above; details: partners not purified
T3 construct: Sorting nexin 8 (SNX8); the plasmid is not described in the methods; source: HEK293T, transiently transfected, in lysate
T3 sequence (looked up): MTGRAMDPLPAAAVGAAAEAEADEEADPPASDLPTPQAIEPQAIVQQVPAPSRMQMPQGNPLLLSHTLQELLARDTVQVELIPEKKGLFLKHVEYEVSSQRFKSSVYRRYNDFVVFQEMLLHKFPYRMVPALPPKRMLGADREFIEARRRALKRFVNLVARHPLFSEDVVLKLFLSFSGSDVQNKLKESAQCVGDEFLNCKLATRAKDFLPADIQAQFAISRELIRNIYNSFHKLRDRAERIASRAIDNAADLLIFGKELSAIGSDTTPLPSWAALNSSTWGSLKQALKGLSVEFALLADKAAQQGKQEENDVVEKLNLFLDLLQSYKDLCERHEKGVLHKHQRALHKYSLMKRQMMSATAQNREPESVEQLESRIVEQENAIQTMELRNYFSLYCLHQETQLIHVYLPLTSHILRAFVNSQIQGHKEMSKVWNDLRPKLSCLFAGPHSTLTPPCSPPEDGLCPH

[5] = target: T4, GFP-SNX32 (UniProt Q86XE0-1 1-403); assay: as above; details: partners not purified
T4 construct: Sorting nexin 32 (SNX32, SNX6b); pEGFP C1 SNX32 FL, gift of P. J. Cullen; also called GFP-SNX32 WT; pEGFP C1 SNX32 FL; source: HEK293T or HeLa, transiently transfected, in lysate
T4 sequence (looked up): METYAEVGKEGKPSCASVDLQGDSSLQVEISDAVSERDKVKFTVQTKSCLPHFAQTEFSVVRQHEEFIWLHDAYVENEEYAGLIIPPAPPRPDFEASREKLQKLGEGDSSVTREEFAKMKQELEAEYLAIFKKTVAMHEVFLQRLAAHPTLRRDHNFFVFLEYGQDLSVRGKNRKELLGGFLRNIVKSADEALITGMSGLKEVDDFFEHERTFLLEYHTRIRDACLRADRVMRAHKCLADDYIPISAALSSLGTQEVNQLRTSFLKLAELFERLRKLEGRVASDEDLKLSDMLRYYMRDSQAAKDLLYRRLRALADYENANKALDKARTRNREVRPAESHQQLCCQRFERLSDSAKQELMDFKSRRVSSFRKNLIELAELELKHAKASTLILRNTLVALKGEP

[6] = target: T5, GFP-SNX4 (UniProt O95219-1 1-450); assay: co-IP; GBP-IP as above with lysates of HeLa cells transiently transfected with wild-type or mutant GFP-SNX4 and HA-SNX32 (legend of Figure 1H); values are the ratio of HA to GFP band intensity; details: partners not purified
T5 construct: Sorting nexin 4 (SNX4); pEGFP C1 SNX4, gift of P. J. Cullen; also called GFP-SNX4 WT; pEGFP C1 SNX4; source: HEK293T or HeLa, transiently transfected, in lysate
T5 sequence (looked up): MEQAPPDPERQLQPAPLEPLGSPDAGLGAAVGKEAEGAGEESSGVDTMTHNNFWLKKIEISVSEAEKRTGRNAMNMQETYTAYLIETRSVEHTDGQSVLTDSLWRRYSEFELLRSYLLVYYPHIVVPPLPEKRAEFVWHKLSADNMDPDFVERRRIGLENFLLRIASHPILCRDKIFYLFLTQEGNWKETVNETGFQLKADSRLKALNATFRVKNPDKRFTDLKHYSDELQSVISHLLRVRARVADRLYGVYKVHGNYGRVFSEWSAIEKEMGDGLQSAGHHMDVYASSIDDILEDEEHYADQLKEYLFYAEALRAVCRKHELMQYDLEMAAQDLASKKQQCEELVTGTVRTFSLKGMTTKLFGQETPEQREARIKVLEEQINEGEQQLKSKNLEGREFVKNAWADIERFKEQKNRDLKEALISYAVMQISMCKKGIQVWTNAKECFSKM

Q: Which ratio of HA to GFP band intensity [1] does the source give for “HA-SNX32 A226E (from UniProt Q86XE0-1 1-403) (natural protein)” here?
A: Its ratio of HA to GFP band intensity is 0.65.

B1: HA-SNX32 full-length (FL) (natural protein, UniProt Q86XE0-1 1-403, looked up)
chain: METYAEVGKEGKPSCASVDLQGDSSLQVEISDAVSERDKVKFTVQTKSCLPHFAQTEFSVVRQHEEFIWLHDAYVENEEYAGLIIPPAPPRPDFEASREKLQKLGEGDSSVTREEFAKMKQELEAEYLAIFKKTVAMHEVFLQRLAAHPTLRRDHNFFVFLEYGQDLSVRGKNRKELLGGFLRNIVKSADEALITGMSGLKEVDDFFEHERTFLLEYHTRIRDACLRADRVMRAHKCLADDYIPISAALSSLGTQEVNQLRTSFLKLAELFERLRKLEGRVASDEDLKLSDMLRYYMRDSQAAKDLLYRRLRALADYENANKALDKARTRNREVRPAESHQQLCCQRFERLSDSAKQELMDFKSRRVSSFRKNLIELAELELKHAKASTLILRNTLVALKGEP
notes: Sorting nexin 32 (SNX32, SNX6b); pcDNA3 HA N(I)-SNX32 FL subcloned from pEGFP C1-SNX32FL; also called HA-SNX32FL; HA-SNX32 WT; source: HEK293T or HeLa, transiently transfected, in lysate
Q: For B1, which ratio of HA to GFP band intensity [2] is on record?
A: The ratio of HA to GFP band intensity was 0.92.

Q: And the “ratio of HA to GFP band intensity” value [3]?
A: The value was 0.98.

Q: And the “ratio of HA to GFP band intensity” value [4]?
A: The value was 0.62.

Q: What about the “ratio of HA to GFP band intensity” value [5] of the same molecule?
A: The value was 0.85.

B2: HA-SNX32 R366E (natural protein, UniProt Q86XE0-1 1-403, looked up)
chain: METYAEVGKEGKPSCASVDLQGDSSLQVEISDAVSERDKVKFTVQTKSCLPHFAQTEFSVVRQHEEFIWLHDAYVENEEYAGLIIPPAPPRPDFEASREKLQKLGEGDSSVTREEFAKMKQELEAEYLAIFKKTVAMHEVFLQRLAAHPTLRRDHNFFVFLEYGQDLSVRGKNRKELLGGFLRNIVKSADEALITGMSGLKEVDDFFEHERTFLLEYHTRIRDACLRADRVMRAHKCLADDYIPISAALSSLGTQEVNQLRTSFLKLAELFERLRKLEGRVASDEDLKLSDMLRYYMRDSQAAKDLLYRRLRALADYENANKALDKARTRNREVRPAESHQQLCCQRFERLSDSAKQELMDFKSREVSSFRKNLIELAELELKHAKASTLILRNTLVALKGEP
notes: Sorting nexin 32 (SNX32) with a point mutation, made by site-directed mutagenesis of HA-tagged SNX32; also called pcDNA3 HA N(I)-SNX32 R366E; source: HeLa, transiently transfected, in lysate
Q: For B2, which “ratio of HA to GFP band intensity” value [6] is on record?
A: Its value is 0.49.

B3: HA-SNX32 Q259R (natural protein, UniProt Q86XE0-1 1-403, looked up)
chain: METYAEVGKEGKPSCASVDLQGDSSLQVEISDAVSERDKVKFTVQTKSCLPHFAQTEFSVVRQHEEFIWLHDAYVENEEYAGLIIPPAPPRPDFEASREKLQKLGEGDSSVTREEFAKMKQELEAEYLAIFKKTVAMHEVFLQRLAAHPTLRRDHNFFVFLEYGQDLSVRGKNRKELLGGFLRNIVKSADEALITGMSGLKEVDDFFEHERTFLLEYHTRIRDACLRADRVMRAHKCLADDYIPISAALSSLGTQEVNRLRTSFLKLAELFERLRKLEGRVASDEDLKLSDMLRYYMRDSQAAKDLLYRRLRALADYENANKALDKARTRNREVRPAESHQQLCCQRFERLSDSAKQELMDFKSRRVSSFRKNLIELAELELKHAKASTLILRNTLVALKGEP
notes: Sorting nexin 32 (SNX32) with a point mutation, made by site-directed mutagenesis of HA-tagged SNX32; also called pcDNA3 HA N(I)-SNX32 Q259R; source: HeLa, transiently transfected, in lysate
Q: B3 was tested. Which “ratio of HA to GFP band intensity” value [6] did it give?
A: The value was 0.75.

B4: HA-SNX32 R220E (natural protein, UniProt Q86XE0-1 1-403, looked up)
chain: METYAEVGKEGKPSCASVDLQGDSSLQVEISDAVSERDKVKFTVQTKSCLPHFAQTEFSVVRQHEEFIWLHDAYVENEEYAGLIIPPAPPRPDFEASREKLQKLGEGDSSVTREEFAKMKQELEAEYLAIFKKTVAMHEVFLQRLAAHPTLRRDHNFFVFLEYGQDLSVRGKNRKELLGGFLRNIVKSADEALITGMSGLKEVDDFFEHERTFLLEYHTEIRDACLRADRVMRAHKCLADDYIPISAALSSLGTQEVNQLRTSFLKLAELFERLRKLEGRVASDEDLKLSDMLRYYMRDSQAAKDLLYRRLRALADYENANKALDKARTRNREVRPAESHQQLCCQRFERLSDSAKQELMDFKSRRVSSFRKNLIELAELELKHAKASTLILRNTLVALKGEP
notes: Sorting nexin 32 (SNX32) with a point mutation, made by site-directed mutagenesis of HA-tagged SNX32; also called pcDNA3 HA N(I)-SNX32 R220E; source: HeLa, transiently transfected, in lysate
Q: B4 was tested. Which “ratio of HA to GFP band intensity” value [6] did it give?
A: Its value is 1.02.

B5: HA-SNX32 E256R (natural protein, UniProt Q86XE0-1 1-403, looked up)
chain: METYAEVGKEGKPSCASVDLQGDSSLQVEISDAVSERDKVKFTVQTKSCLPHFAQTEFSVVRQHEEFIWLHDAYVENEEYAGLIIPPAPPRPDFEASREKLQKLGEGDSSVTREEFAKMKQELEAEYLAIFKKTVAMHEVFLQRLAAHPTLRRDHNFFVFLEYGQDLSVRGKNRKELLGGFLRNIVKSADEALITGMSGLKEVDDFFEHERTFLLEYHTRIRDACLRADRVMRAHKCLADDYIPISAALSSLGTQRVNQLRTSFLKLAELFERLRKLEGRVASDEDLKLSDMLRYYMRDSQAAKDLLYRRLRALADYENANKALDKARTRNREVRPAESHQQLCCQRFERLSDSAKQELMDFKSRRVSSFRKNLIELAELELKHAKASTLILRNTLVALKGEP
notes: Sorting nexin 32 (SNX32) with a point mutation, made by site-directed mutagenesis of HA-tagged SNX32; also called pcDNA3 HA N(I)-SNX32E256R; source: HeLa, transiently transfected, in lysate
Q: Which “ratio of HA to GFP band intensity” value [6] does the source give for B5 here?
A: The value was 0.66.
